Columns and labels:
Settings in all cases: both partners purified
[1] = target: T1, PD-L1 D1D2 (residues 18-237) (human, UniProt Q9NZQ7); experiment: BLI; biotinylated avitagged PD-1 (5 ug/ml) on streptavidin biosensors; 3 uM PD-L1 D1D2 alone or with 20 uM VHH; 25 C
T1 construct: PD-L1 (programmed death-ligand 1, B7-H1, CD274), human, extracellular region D1D2, residues 18-237; also called extracellular region of PD-L1

PD-L2-Fc (Generon) = target: T2, PD-L2-Fc (Generon) (Homo sapiens (assumed), UniProt Q9BQ51); experiment: BLI; PD-L2-Fc (2 ug/ml) on Protein G biosensors; VHHs at 10 uM; 25 C
T2 construct: PD-L2 (programmed cell death 1 ligand 2), extracellular region; No catalogue number printed; also called extracellular region of PD-L2 with a Fc tag; source: bought: Generon
T2 sequence (Q9BQ51 20-220): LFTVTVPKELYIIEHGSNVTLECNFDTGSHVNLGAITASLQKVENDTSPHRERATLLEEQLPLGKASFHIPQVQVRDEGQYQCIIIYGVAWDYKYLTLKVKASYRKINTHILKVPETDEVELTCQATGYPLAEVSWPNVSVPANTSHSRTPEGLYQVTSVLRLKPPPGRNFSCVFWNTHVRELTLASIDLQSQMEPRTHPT

PD-L1-Fc fusion protein [2] = target: T3, PD-L1-Fc fusion protein (Homo sapiens, UniProt Q9NZQ7); experiment: BLI; PD-L1-Fc (5 ug/ml) loaded on Protein G biosensors, VHH in solution (10 uM to 0.3 nM); Octet QKe, 25 °C, PBS pH 7.4, 0.01% Tween-20, 0.1% BSA; steady-state analysis of the maximum responses, one-site specific-binding model in Prism 9
T3 construct: PD-L1 (programmed cell death 1 ligand 1, B7-H1, CD274) part of a bought PD-L1-Fc fusion protein; Probably the extracellular region; Held on Protein G biosensors by the Fc; also called programmed death-ligand 1; B7-H1; source: bought: Invitrogen
T3 sequence (Q9NZQ7 19-238): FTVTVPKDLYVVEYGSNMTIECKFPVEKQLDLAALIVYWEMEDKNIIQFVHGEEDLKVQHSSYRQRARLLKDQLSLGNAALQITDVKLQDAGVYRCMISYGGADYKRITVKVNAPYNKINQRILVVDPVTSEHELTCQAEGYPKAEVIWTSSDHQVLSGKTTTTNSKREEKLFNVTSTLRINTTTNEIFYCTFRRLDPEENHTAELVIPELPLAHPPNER

[3] = target: T4, PD-L1 D1 (residues 18-134) (human, UniProt Q9NZQ7 18-134); experiment: NMR titration; chemical shift perturbation (minimal shift) mapping: labelled PD-L1 D1 free and with a 60% molar excess of CD80; 15N/1H TROSY; 25 C; 25 mM KH2PO4 pH 7.4, 25 mM NaCl, 10 uM EDTA
T4 construct: PD-L1 (programmed death-ligand 1, B7-H1, CD274), human, IgV-like domain D1, residues 18-134; Uniformly 15N/13C labelled for NMR; the sentence on constructs can be read as giving a C-terminal avitag to this construct too; also called PD-L D1
T4 sequence (Q9NZQ7 18-134): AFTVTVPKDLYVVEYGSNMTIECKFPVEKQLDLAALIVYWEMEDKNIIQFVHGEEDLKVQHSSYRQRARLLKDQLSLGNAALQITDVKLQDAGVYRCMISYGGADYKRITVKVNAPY

PD-L1-Fc fusion protein [4] = target: T3, PD-L1-Fc fusion protein; experiment: BLI; PD-L1-Fc (5 ug/ml) loaded on Protein G biosensors, VHH in solution (10 uM to 0.3 nM); Octet QKe, 25 °C, PBS pH 7.4, 0.01% Tween-20, 0.1% BSA; kinetic analysis, global model 'association kinetics' in Prism 9

T1 sequence (Q9NZQ7 18-237): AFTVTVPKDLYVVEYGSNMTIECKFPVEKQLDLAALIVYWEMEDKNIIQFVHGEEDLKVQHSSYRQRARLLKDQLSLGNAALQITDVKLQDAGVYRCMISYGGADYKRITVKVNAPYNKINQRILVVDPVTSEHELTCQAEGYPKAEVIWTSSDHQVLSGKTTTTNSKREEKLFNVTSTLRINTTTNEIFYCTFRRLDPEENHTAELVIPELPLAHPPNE

percent inhibition of PD-L1 D1D2 binding to PD-1 at 20 uM VHH [1] [%]	binding result (PD-L2-Fc (Generon))	Binder	other results
> 90	no binding (tested: 10 μM)	VHH9 (VHH, TEV-cleavable tag; source: E. coli BL21(DE3), soluble, purified (Ni-NTA, gel filtration)) VHH: QVQLVESGGKLVQAGGSLRLSCAASGRSIVPYAMGWFRQAPGKEREFVAVIDWSGFRTYYADSVKGRFTISRDNAKNTVYLEMSSLKPEDTAVYYCAQAGYGLGYRIHANEYHYWGQGTQVTVSS	–
–	–	VHH9 (VHH, The His6 tag is TEV-cleavable; also called anti-PD-L1 VHH 9; source: E. coli BL21(DE3), soluble expression, purified (Ni-NTA, gel filtration)) VHH: QVQLVESGGKLVQAGGSLRLSCAASGRSIVPYAMGWFRQAPGKEREFVAVIDWSGFRTYYADSVKGRFTISRDNAKNTVYLEMSSLKPEDTAVYYCAQAGYGLGYRIHANEYHYWGQGTQVTVSS	Kd (PD-L1-Fc fusion protein [2]): 0.7 nM
–	–	extracellular region of CD80 (residues 35-235) (domain or fragment, human, UniProt P33681 35-235, looked up, CD80 (Cluster of differentiation 80, B7-1), human; construct 1-235 with the native signal peptide; final purified protein holds residues 35 to 235 after signal peptide cleavage; Glycosylated form; also called B7-1; source: expiCHO cells with kifunensine, secreted, purified (Ni-NTA, gel filtration)) VIHVTKEVKEVATLSCGHNVSVEELAQTRIYWQKEKKMVLTMMSGDMNIWPEYKNRTIFDITNNLSIVILALRPSDEGTYECVVLKYEKDAFKREHLAEVTLSVKADFPTPSISDFEIPTSNIRRIICSTSGGFPEPHLSWLENGEELNAINTTVSQDPETELYAVSSKLDFNMTTNHSFMCLIKYGHLRVNQTFNWNTTK	binding result [3]: binds
> 90	no binding (tested: 10 μM)	VHH15 (VHH, TEV-cleavable tag) VHH: EVQLVESGGGLVQAGGSLRLSCAASGRTSSIYVMAWFRQAPGKERELVAAISTSGNTVYPNSVKGRFTISRDNAKSTVYLQMNSLKPEDTAVYFCNADRTTYSSGRYSSQDYWGQGTQVTVSS	–
–	–	VHH15 (VHH, The His6 tag is TEV-cleavable; also called anti-PD-L1 VHH 15) VHH: EVQLVESGGGLVQAGGSLRLSCAASGRTSSIYVMAWFRQAPGKERELVAAISTSGNTVYPNSVKGRFTISRDNAKSTVYLQMNSLKPEDTAVYFCNADRTTYSSGRYSSQDYWGQGTQVTVSS	Kd (PD-L1-Fc fusion protein [2]): 9.2 nM
> 90	no binding (tested: 10 μM)	VHH13 (VHH, TEV-cleavable tag) VHH: EVQLVESGGGLVQPGGSLRLSCAASGSTFSINAMGWYRQAPGKQRELVAAISSGGSTNYADSVKGRFTISRDNAKNTVYLQMNSLKPEDTAVYYCNTINIGTFISLGGSPLGSWGQGTQVTVSS	–
> 90	no binding (tested: 10 μM)	VHH16 (VHH, TEV-cleavable tag; CDR 1 and 2 identical to VHH18, CDR 3 distinct) VHH: QVQLVESGGGWVQTGGSLRLSCAASGSTFDIKRMAWYRQAPGKEREFVADIWSEGSTHYADSVKGRFTISRDSAKNTMYLQMNSLKPEDTAAYYCNVGNTWGQGTQVTVSS	–
> 90	no binding (tested: 10 μM)	VHH4 (VHH, TEV-cleavable tag) VHH: EVQLVESGGGLVQAGDSLRLSCTASGRNFIIYTLAWFRQAPGKEREFVAGISWSGGSTKYADPVKGRFTISRDNAKNTVYLQMNSLHSDDTGVYYCGAQRGATIDLKYGMESWGKGTQVTVSS	–
–	–	VHH4 (VHH, The His6 tag is TEV-cleavable; also called anti-PD-L1 VHH 4) VHH: EVQLVESGGGLVQAGDSLRLSCTASGRNFIIYTLAWFRQAPGKEREFVAGISWSGGSTKYADPVKGRFTISRDNAKNTVYLQMNSLHSDDTGVYYCGAQRGATIDLKYGMESWGKGTQVTVSS	Kd (PD-L1-Fc fusion protein [4]): 48 nM; koff (PD-L1-Fc fusion protein [4]): 0.029 s⁻¹; kon (PD-L1-Fc fusion protein [4]): 590000 M⁻¹ s⁻¹; Kd (PD-L1-Fc fusion protein [2]): 59 nM
> 90	no binding (tested: 10 μM)	VHH2 (VHH, TEV-cleavable tag; source: E. coli BL21(DE3), purified (Ni-NTA, gel filtration)) VHH: QVQLVESGGGSVQPGGSLRLSCAASGSIVGHAVQAWYRQAPGKQRDLVAQLFDNGKTNIADSVKGRFTISGDNAKNTFYLQMNNLKPEDTAIYYCAILILPSMGVPPNIYEGQGTQVTVSS	–
> 90	no binding (tested: 10 μM)	VHH17 (VHH, TEV-cleavable tag) VHH: EVQLVESGGGLVQAGGSLRLSCAASGRTFSAYAMGWFRQAPGKERELVAGISWSGGMTYYADSVKGRFTISRDNAKNMVYLQMNSLKAEDTAVYYCAGGFSAVVPDHPDEYHYWGQGTQVTVSS	–
> 90	no binding (tested: 10 μM)	VHH21 (VHH, TEV-cleavable tag; Two cysteines within CDR 3 form an additional disulfide bond (confirmed by mass spectrometry)) VHH: EVQLVESGGGLVQTGGSLRLSCAASGRTFDSYFMGWFRQAPGKEREFVAAISGSGSLTSYEDGVKGRFTISRDNAKNTVSLQMTNLKPEDTAVYYCASCLSCAFINGRQVDSRYYNYWGQGTQVTVSS	–
> 90	no binding (tested: 10 μM)	VHH14 (VHH, TEV-cleavable tag) VHH: EVQLVESGGGLVQAGDSLRLSCTASARTFIKYAMGWFRQAPGKEREFVAAISWSGSRTTYADSVKGRFTISRDNDKNTVYLQMNTLEPEDTAIYYCAKAKGGYHSSQYDYDYWGQGTQVTVSS	–
> 90	no binding (tested: 10 μM)	VHH18 (VHH, TEV-cleavable tag; CDR 1 and 2 identical to VHH16, CDR 3 distinct) VHH: EVQLVESGGGWVQTGGSLRLSCAASGSTFDIKRMAWYRQAPGKEREFVADIWSEGSTHYADSVKGRFTISRDSAKNTMYLYMNSLKPEDTAVYYCNVEYVLRTYWGQGTQVTVSS	–
> 90	no binding (tested: 10 μM)	VHH22 (VHH, TEV-cleavable tag) VHH: EVQLVESGGGLVQAGGSLKLSCAASGRTFSGNTMGWFRQAPGKERELVTVVSSGGSTYYSDSVKGRFTISRDNALNTVYLQMNSLKPEDTAVYYCAAASLISGLTTTRRLFDYWGQGTQVTVSS	–
> 90	no binding (tested: 10 μM)	VHH19 (VHH, TEV-cleavable tag) VHH: EVQLVESGGGSVQAGASLRLSCAASGFPFSHYAIGWFRQAPGKEREFVTSIDRSGINTYYADSVKGRFTISRDNAKNAVSLQMNSLKPDDTAVYYCAAGPRLVTSPELYPYWGQGTQVTVSS	–
> 90	no binding (tested: 10 μM)	VHH20 (VHH, TEV-cleavable tag) VHH: EVQLVESGGGSVQAGGSLRLSCVASGIAFSESPMAWYRQAPGRQREFVADVSADNKPYYRDTLKGRFTISRDNDKNSVYLQMNFLQPEDTAVYYCNALLLEAGTIKNYWGQGTQVTVSS	–
> 90	no binding (tested: 10 μM)	VHH10 (VHH, TEV-cleavable tag) VHH: EVQLVESGGGLVQAGDSLRLSCAASGRAFSGYAMAWFRQAPEKEREFVAAITWRGGTPYYAVRAKGRFTISRDSAKNTAYLEVNSLKPEDTATYYCAAPSLQVATMDVKDYAYWGQGTLVTVSS	–
